Measurements from US20250152743A1, “SYNPOPTOSIS CIRCUITS FOR PROGRAMMABLE CELL DEATH CONTROL” (California Institute of Technology, priority 2023, published 2025).

B1: tobacco etch virus protease (protein)
chain: MGSGESLFKGPRDYNPISSTICHLTNESDGHTTSLYGIGFGPFIITNKHLFRRNNGTLLVQSLHGVFKVKNTTTLQQHLIDGRDMIIIRMPKDFPPFPQKLKFREPQREERICLVTTNFQTKSMSSMVSDTSCTFPSSDGIFWKHWIQTKDGQCGSPLVSTRDGFIVGIHSASNFTNTNNYFTSVPKNFMELLTNQEAQQWVSGWRLNADSVLWGGHKVFMVKPEEPFQPVKEATQLMNS
notes: viral input protease
B2: TEVP-activatable caspase-3: caspase-3 whose cleavage site between large and small subunits was replaced by a TEVP cleavage site; SEQ ID NO: 10 (protein)
chain: MGSENTENSVDSKSIKNLEPKIIHGSESMDSGISLDNSYKMDYPEMGLCIIINNKNFHKSTGMTSRSGTDVDAANLRETFRNLKYEVRNKNDLTREEIVELMRDVSKEDHSKRSSFVCVLLSHGEEGIIFGTNGPVDLKKITNFFRGDRCRSLTGKPKLFIIQACRGTELDCGIETENLYFQSGVDDDMACHKIPVEADFLYAYSTAPGYYSWRNSKDGSWFIQSLCAMLKQYADKLEFMHILTRVNRKVATEFESFSFDATFHAKKQIPCIVSMLTKELYFYH
B3: TEVP-activatable GSDMA: GSDMA with TEVP cleavage site between N-terminal and C-terminal domains; SEQ ID NO: 16 (protein)
chain: MGSPVFEDVTRALVRELNPRGDLTPLDSLIDFKHFRPFCLVLRKRKSTLFWGARYVRTDYTLLDLLEPGSSPSDLTDSGNFSFKNMLDVQVQGLVEVPKTVKVKGTAGLSQSSTLEVQTLSVAPSALENLKKERKLSADHSFLNEMRYHEKNLYVVMEAVEAKQEVTVEQTGNANAIFSLPSLALLGLQGSLNNNKAVTIPKGCVLAYRVRLLRVFLFNLWDIPYICNDSMQTFPKIRRVPCSAFISPTQMISEEPEEEKLIGEENLYFQSMHEDFKTLKEEVQRETQEVEKLSPVGRSSLLTSLSHLLGKKKELQDLEQKLEGALDKGQKVTLEALPKDVLLSKDAMDAILYFLGALTELTEEQLKILVKSLEKKILPVQLKLVESTLEQNFLQDKEGVFPLQPDLLSSLGEEELTLTEALVGLSGLEVQRSGPQYAWDPDTRHNLCALYAGLSLLHLLSRKSNALTYCALS

Assays:
HEK cells = test: Transient DNA transfection of HEK cells, Annexin/Sytox staining, flow cytometry; assay type: cell-based, human; details: for cell death without the activating TEVP: expressed at high levels indicated by co-transfected Cherry
Method: HEK cells were transiently co-transfected with DNA encoding the circuits, often along with Cherry, a fluorescent protein marker, and cells were analyzed by flow cytometry 16 to 24 hours later. To quantify cell death, the cells were strained with Annexin, Sytox, or both. Annexin stains apoptotic cells by binding to phosphatidylserine exposed on the outer leaflet, and pyroptotic cells by binding to phosphatidylserine in the inner leaflet after membrane permeabilization. In contrast, Sytox, a membrane-impermeable dye, primarily stains pyroptotic cells. Therefore, apoptotic cells are typically Annexin-high and Sytox-low, while pyroptotic cells are Annexin-high and Sytox-high (FIG. 7B). For simplicity, in experiments involving only a single death mode, a single relevant dye was often used. To focus on cells influenced by the circuits, the fraction of Annexin- or Sytox-positive cells was calculated after gating on the fluorescent co-transfection marker (FIG. 7C).
On the day before transfection, HEK cells were seeded at a density of 0.3-0.6 million cells per well on a 12-well plate, 0.1-0.3 million cells per well on a 24-well plate, or 15,000-50,000 cells per well on a 96-well plate. The cells were allowed to attach to the plate overnight, for at least 8 hours. On the day of transfection, we treated the cells with purified DNA plasmids encoding circuit components. In addition to plasmids encoding circuit components, we often included a plasmid encoding a fluorescent co-transfection marker, at roughly 50 ng DNA per well on a 24-well plate. Given the different number of molecular components in each synthetic circuit and their various relative ratios, the total amount of DNA ranged from 50 to 1 μg per well on a 24-well plate, and was scaled by […] when other 12-well or 96-well plates were used, respectively. On the same plate, we often equalized the total amount of DNA across all transfected wells, using a filler plasmid encoding the neomycin resistance gene. To transfect cells with plasmid DNA, we used three types of transfection reagents—Lipofectamine 2000 (Thermo Fisher), Lipofectamine 3000 (Thermo Fisher), and FuGENE HD (Promega), according to manufacturers' instructions. Briefly, for a typical transfection experiment on a 24-well plate, we mixed plasmids and the transfection reagent, around 200 ng of DNA per 1 μl of Lipofectamine 2000, in 25 μl of Opti-MEM reduced serum medium (Thermo Fisher), incubated the mixture for 5-10 min at room temperature, and then added another 25 μl of Opti-MEM before transferring the mixture dropwise to culture wells. We also performed some transfection experiments using the Lipofectamine 3000 kit (Thermo Fisher), at a ratio of 2,000 ng of DNA, 2 ul of 4 ul of P3000, and 3 μl of Lipofectamine 3000. We similarly diluted the mixture in Opti-MEM before adding it to cells. For transfection with FuGENE, we used a ratio of 4 μl FuGENE:1 μg of DNA, and incubated the DNA-FuGENE mixture at room temperature for 5 min before transfection. To enable protein expression from plasmids with a doxycycline-inducible promoter, doxycycline was added to the cell culture at a final concentration of 100 ng/mL. In experiments involving Q-VD-OPh, the compound was added to the cell culture at a final concentration of 30 μM, immediately after the cells received the transfection mixture. To transfect cells with in vitro transcribed mRNA, Lipofectamine MessengerMax (Thermo Fisher) was used. Briefly, for transfection of one well in a 96-well plate, 0.1 μL of Lipofectamine MessengerMAX was diluted in 1.25 μL Opti-MEM and incubated for 10 minutes at room temperature. mRNA was then added to Opti-MEM to the appropriate conditions at the following amounts: 12.5 ng of fluorescent co-transfection marker, 56.25 ng of protease, and 56.25 ng of engineered executioner. Diluted mRNA was then added to diluted MessengerMAX reagent and incubated for 5 minutes at room temperature before addition to Jurkat or THP-1 cells in RPMI media. […]

[1] = tested on: sender and receiver HEK cells
Method: For experiments that involved circuit senders and receivers, sender HEK cells were seeded on a 12-well plate at a density of 0.6 million cells per well (day 1). On the following day (day 2), using Lipofectamine 3000 (Thermo Fisher), we transfected the sender cells with 450 ng of pLVX-M-PURO plasmid containing the cargo, 450 ng of M-psPAX2, and 100 ng of pCMV-VSV-G. To generate VLPs encoding two cargoes, we performed similar transfections using two cargo-containing plasmids, each at 225 ng. At 8 hours post transfection, we removed the media containing residual Lipofectamine particles, washed the cells gently with fresh media, and replaced the media. One day after transfection of sender cells (day 3), we typically seeded receiver HEK cells on a 24-well plate at a density of around 0.3 million cells per well or on a 96-well plate at around 75,000 cells per well. We also tried other receiver densities, in which case we needed to dilute the cells if they approached confluency during the course of the experiment. Two days after transfection of sender cells (day 4), we collected the sender supernatant, centrifuged it at 3,000 g for 5 min to remove cell debris, and passed it through a cellulose acetate filter with 0.45 μm pore size (VWR). […] After about 40 hours, we collected the co-cultured cells, stained them with Sytox, and analyzed cell death by flow cytometry. […]

HEK293FT cells [2] = test: Polytransfection of input proteases and caspase cleavage-site variants, Annexin staining; assay type: cell-based, human
From the text: The cleavage efficiency of proteases is known to depend on corresponding accessible cleavage sites. Mutations to native protease cleavage sites can slow (i) the recruitment of substrates to the protease active site, (ii) catalytic reaction steps, or (iii) the release of the substrate from the protease. As described herein, this property to modulate cell death executioner activation thresholds. Specifically, we surveyed the following constructs with modified protease cleavage sites across a wide range of possible cell death executioner and input protease expression regimes: […]
To evaluate how the mutated protease cleavage sites affect Caspase 3 activation, we polytransfected (i) input proteases (P3/P4-zipper reconstituted TEVP as a positive control, split TEVP without reconstitution domain as a negative control, or NeoR to evaluate caspase baseline activity; all with IRES-BFP to enable expression tracking) and (ii) output caspase (caspase+co-transfected GFP for expression tracking) in HEK293FT cells. Annexin staining as described above in Example 1 was used to quantify cell death.

HEK293FT cells [3] = test: Co-transfection time course, cell death every 24 h over 4 days; assay type: cell-based, human; details: P3/P4-zipper reconstituted TEVP
Method: Moreover, it was evaluated if some of these mutations affect the maximal caspase activation accessible and the time dependency between caspase activation and cell death by co-transfecting (i) input proteases (P3/P4-zipper reconstituted TEVP as a positive control, split TEVP without reconstitution domain as a negative control, or NeoR to evaluate caspase baseline activity; all with IRES-BFP to enable expression tracking) and (ii) output caspase (“ENLYFQS” (SEQ ID NO: 2)/“ENLYFQQ” (SEQ ID NO: 4)/“ENLFFQQ” (SEQ ID NO: 7)+co-transfected GFP for expression tracking) in HEK293FT cells and measuring cell death every 24 h over the course of 4 days.

Molecule	activation of cognate engineered GSDMs containing the cleavage sites (HEK cells; tev, tvmv and hcv sites)	sender cell death [1]	activation at high caspase expression with non-reconstituted split protease (HEK293FT cells [2])	input/output expression required for caspase activation (activation threshold) (HEK293FT cells [2]; order, decreasing: ENLFFQQ, ENLFFQY, ENLYFQS+TEVP-cleavable DHFR, ENLFFQS~ENLYFQY~ENLYFQQ, ENLYFQS, both TEVP and TVMVP cleavage site)	maximal caspase activation / maximal fraction of dead cells (HEK293FT cells [3])	Sytox uptake (HEK cells; co-transfected with TEVP)	cell death without the activating TEVP (HEK cells)	cell death / apoptosis, Annexin staining (HEK cells; with TEVP, flow cytometry 16 to 24 hours after DNA transfection)	mode of cell death, Sytox and Annexin double staining (HEK cells; background of TEVP activating TEVP-activatable caspase-3)
B1	orthogonally activated their cognate engineered GSDMs	neither circuit component alone triggered substantial sender cell death							
B2			leaky activation	in decreasing order	comparable maximal fraction of dead cells	only modestly took up Sytox	induced noticeable cell death even without the activating TEVP	ability of the modified caspase-3 to kill HEK cells when co-transfected with TEVP was verified	
B3		neither circuit component alone triggered substantial sender cell death					induced noticeable cell death even without the activating TEVP		converted apoptosis to pyroptosis
